The results in this text go back to the DeepSol protein solubility set.

A short description of this data set: soluble on expression in E. coli; label from the status in PepcDB or PDB records.
As for “MERIETIPTDKEHLSQDEVIRLASTPCSAPALKRAFLFSCLTALRKSDIKKLTWEEIQPYGSDGVMYVTTRMQKTKDIVHNPISEEALELIGYSPDKRGKVFPDFKDSMTQAPLKNWLKDAGITKHISYHCSRHSFACLQLDAGTSIAVVQRYLGHKNVATTEVYAKISDAQKRASVGLEHHHHHH”, the “soluble on expression in E. coli” value is listed as “soluble”. For “MAKIALIGASGNAGSRILKELSDRGHQVTAIARNPEKIAALPNVVAKKGDVFDQAALSELLKGHDAVISSVHFTASDPATLIEAVRASGVQRYLVVGGAGSLEIAPGQRVVDLPDFPAAYKAEATKGAEFLDKLKQEKQLDWTFLSPSAEFVPGERTGKFRIGKDNLLSNEQGSRISFEDYAIALADEIEKPQHSRQRFTVGY”, the “soluble on expression in E. coli” value was “not soluble”.

Take “MGSDKIHHHHHHMGCKSVYADSCWISSPTLNFGSVNTQQVSSKTDLDVTCNQYNNVKTSFNLCFYIEDNSPLGINPRRLISLSWPFDYLNYDLYYDPSFSRMIDNKAAPNNLLCKSLQIENNGQQTVQIPIYGKVYANQNVKADNYQSYNMTVKLLYKSKTGDVVPSVEETLAQQNMVQNYMKTTTKFENSCAVVGVNTLDFGSIISLNQPIYGQTSIQLKCPTNTALKVGLDTGLYASGTQRRMTNAGQFIQYDLYQDSAYSIAWGTSDNSVLKLDTYQPVFTIPVYGRILPQNQNLKAGEYRDTITIKLTY”: the “soluble on expression in E. coli” value is “not soluble”. For the sequence “MAVRVAINGFGRIGRNILRAIVESGRTDIQVVAINDLGPVETNAHLLRYDSVHGRFPKEVEVAGDTIDVGYGPIKVHAVRNPAELPWKEENVDIALECTGIFTSRDKAALHLEAGAKRVIVSAPADGADLTVVYGVNNDKLTKDHLVISNASCTTNCLAPVAQVLNDTIGIEKGFMTTIHSYTGDQPTLDTMHKDLYRARAAALSMIPTSTGAAKAVGLVLPELKGKLDGVAIRVPTPNVSVVDLTFIAKRETTVEEVNNAIREAANGRLKGILGYTDEKLVSHDFNHDSHSSVFHTDQTKVMDGTMVRILSWYDNEWGFSSRMSDTAVALGKLI”, the “soluble on expression in E. coli” value is on record as “soluble”. “DSNALWMPYVNGRIRVIVMRNGGGGIFRFIPGPDSLKELETCFETPLEVPVREMAGAYGWRYMKAVSAEELETVLPSFFASGDRAVLLEVETPRFENAPVLKSYFTYISGESYPVNR”: the “soluble on expression in E. coli” value is reported as “not soluble”.

“MAHHHHHHMGGYFSKDLEECLRNEKRNLNRSIRELEREIFKLTNEQSKIEKNIKINAKRNGDTSTVRTLARDYISIKKTIAKYNKLKSHLFSMKVKLQSVKSSEQLGRSLTEINRVIKRVNGYIKLTSLNKSINDFHKENNEVSLKEDMLDDLFEAFDYDSQMVAEEEELVTKVLEGMGIQMNAKLEDIPSPGELPKTQVDHLGVSDLEARINNLRLGKS”: the “soluble on expression in E. coli” value is on record as “soluble”. “MMEADKKFLELVKKWGVLSVVSSWQDRLLRDICALIVECVLFDKTCAVAPAYFTLIAMNSSKFSTQQWNIFSNFLATASTQSLRHVRLLNSFFVRSSTDENGDIGDVTSYNPGKLTFRQLIAAVQVLSSQKEKSLGQKEEEDLSSGVALIMLSHGADTHRLEVHSIISSLFTHCLLLQLIASLLLSEDSNPKLKATLIGSTSPIDPKLDDSIYPILYNILNESSETSLDFDSRPAVGSLLSRMLGIKHANLLKALVSSNLTKTMSLLRRFEKTKNTELLPEIAKAVKSRSVDLKSVEFEVSTRRSAFVTREHAITQYHLVPVDNGEENAYKLVSQEFVDGALSEYDKHRDRLKPFIPDRRNPFQHAIDDSDTVSIDSKTEDFDEIRLAAYRDICLIPLRYVSDNLLREHLPDFLPPVTQIVLSSPDLAVRQLAVDFMSRLA”: the “soluble on expression in E. coli” value is “not soluble”.

Take “MAHHHHHHMEFNRSQAAGNGKYVELFAQSYSGPVPKPLPPCTEPTPDEQYRQLMEEKKNEIGEREQRHAENTAGASGSNVDSSNVVGLFSNAATKLRNVAQQVTLKIERASTEVSSATGAAVRQVERQLNVDRFLSNFPELGAMGEILLADYACTAINGGQRVSGHMHITKNYLCFSAPGSSVINQLATAVLKESGVGSDNNPVLGIRQIIPLTEIACILLSVALETVDHRPPFFLPLPASYVRPTGLQIYTTKQQLFQFLAFESIAAKAGSVFTDAVKGLPIQRAYNYLDHAWRASTSVPLPGVNYAS”: the “soluble on expression in E. coli” value is “not soluble”.

Take “MNYHTFCPISCVSWLYQKIEDSFFLVIGTKTCGYFLQNAMGVMIFAEPRYAMAELEEGDISAQLKDYEELKRLCLQIKRDRNPSVIVWIGTCTTEIIKMDLEGLAPQLEAEIGIPIVTARANGLDYAFTQGEDTVLASMAHKCPTSAQVQGEDKELEHHHHHH”: the “soluble on expression in E. coli” value is listed as “soluble”. Then “MSLKGNLDVIPQPQEIVLARDTTPFIIDRSTTIVYPATNEKMHRTADFLATFIKEMTGTEVHVSDKEKSSNAIILAVDSTMGHPEGYKLQITPEKVLLTGGSEAGVFYGIQTIHKALPILKDGKVAAALPAGTVTDFPRFRYRGFMIDVGRHFFPVSYLKQMIDLMALHNINYFHWHLTEDQGWRIEIKKYPKLTEIGSKRDSTIIDWETKKFDGKPHSGFYTQDEAREIVRYAADRFITVVPEIDLPGHTTAALASYPELGCTGGPYKVLCSFGVFPDVLCAGNDQTLQFTKDVLDEIMDIFPSEYIHIGGDECPKSRWEKCPKCQAKIKELGIKALPKHSKENQLQTYFMSELEKEINAHGRRMLGWDEVLEGGLTPNSTIMSWRGIQGGIEAARQHHDVIMTPIQRLYFSNPRINKMTGFEWMNRVYNFEPVPAELTDAEKKFVIGTQGCIWTEWTADSTKMEWQILPRMAALSEIQWTLPEHKNFERFMERLPEMLKIYSSLDYGYREDVFAADTLKTHKEGHHHHHH”, with “soluble”. As to “MGSDKIHHHHHHMEEITKIESIDQYDQLFGLETLHPLVNVIDFSKATKTVDYYRMNIGFYSLFLKDAKCGDLRYGRKYYDYQEGTVVCMAPGQVIGIDNRKQTPIRTKSIGLLFHPDLIRGTSLGQNIKHYSFFSYEVNEALHLSEQEREIVTDCIHKIQIELEHAIDKHSKQLIVRNIELLLDYCMRFYERQFITRNQANKDIIVKFEQLLDEYFQNQTALTEGLPSVKYFADKVCLSSNYFGDLIKKETGKTAQEYIQHRIIELAKERILEGSQTVSQIAYELGFQYPQHFSRLFKKNVGCTPNEYKQQN”, the “soluble on expression in E. coli” value is “not soluble”. For “MALNVIKISRVSLVTNSVEPLVLPLTFFDLLWLKLNPIERVTFYKLTESSRDSFFSSILPKLEQSLSLVLSHFLPLSGHLKWNPQDPKPHIVIFPKDTVSLTVVESEADFSYISSKELRLETELRPLVPELQVSSDSASLLSLQITLFPNQGFSIGTTVHHVVMDGKTASKFHKSWAHICKHGTTPQDFDLPTVLDRTVINVPAGLEQKIFQLSSYISEEKDYARTLTLPPAKEIDNDVVRVTLELTEVDIEKLKERAKNESTRSDLHLSTFVVSYAYVLTCMVKSCGGDANRPVRFMYAADFRNRLDPPVPLTYFGNCVLPIDFNGYKATTFLGKDGYVNGVEILSDSVRGLGSRNIESIWEVYEDGTKNMKLDTQNVTVTGSNQFGIYGSDFGWGRPVKTDVMSLYKNNEFSMSARRDEIGGLEIGISLKKCEMNVFLSLFTSDFDIYK”, the “soluble on expression in E. coli” value is recorded as “soluble”. Turning to “MGSDKIHHHHHHMQRDDDSFMLVPSKGEDYMAGWHLDTKMAQDIVARTMRIIDTNINVMDARGRIIGSGDRERIGELHEGALLVLSQGRVVDIDDAVARHLHGVRQGINLPLRLEGEIVGVIGLTGEPESLRKYGELVCMTAEMMLEQSRLMHLLAQDSRLREELVMNLIQAEEHTPALNEWAQRLGIDLNQPRVVAMIEVDSGQLGVDSAMAELQQLQNALTTPDRNNLVAIVSLTEMVVLKPALNSFGRWDADDHVRRVEQLIARMKENGQLRFRVALGNFFTGPGSIARSYRTARTTMMVGKQRMPESRSYFYQDLMLPVLLDSLRGGWQANELARPLARLKAMDNNGLLRRTLQAWFRHNVQPLATSKALFIHRNTLEYRLNRISELTGLDLGSFDDRLLLYIALQLDEQR”, the “soluble on expression in E. coli” value was “not soluble”.

For the sequence “MGSDKIHHHHHHMRKKPLTIFSDGTLTRRENTLYFESAKGRKPLAIEGIYDIYIYGHVNITSQALHYIAQKGILIHFFNHYGYYDGTFYPRETLLSGDLIIRQAEHYLNKEKRLFLAKSFVTGGTKNMERNLKNWGIKAKLSDYLDELNDARKITEIMNVEARIRQEYYAKWDENLPEEFKIVKRTRRPPKNEMNALISFLNSRLYATIITEIYNTQLAPTISYLHEPSERRFSLSLDLSEIFKPIIADRVANRLVKKGSLKKEHFREDLNGVLLTEEGMKIVTKAYNEELQKSVKHPKIGSNVTRQRLIRLEAYKLIKHLVGVEEYKPLVAWF”, the “soluble on expression in E. coli” value was “not soluble”.

With “HVYDEQIYRKSSEVLRMSSERIEDELKKIEDVSYEIITDEQIQRILSMQNRDDTYDQYQMKQELWDQLAGYASDEKYIDSIHVIDARGSEYSAGSSSSDLLQQEQEEVFKRAKAKSGRNLWMTLGGSDPVLISARQIRSYHQLSLNGLGMVLIQVNVKQMIRDVPKDWGDSVGDIMIADQGGNLVYTAHASAHVPEAAKETLKHPGYDLIKKNGKRYFISYLQSSYQNWSYYNVIPFDQMFAK”, the “soluble on expression in E. coli” value was “not soluble”. Take “MSMVVDSVPDSSTFVGKTIRPVAAVSIHGIVFDGERLLAVDSKNGYLLEIDPYTNNTKLLNGQYWQEFIGATGLAIADRQLWFSSGQYVYTCNLEGPDLKPEVFAWFDDPVNGVAIWESTVYITCHKRGHIWVYGRDTRKLVATFYSPGIGVENITVRGEELWVCDSAEQSVYCLDRATGEINFSLITPFESPTGLAFYDDQAVGKATLYVAYVQQEPYVRDNPNADPNHELMYRETTFIHPLYFYNDPHQCCAFSNGYLVEMRYVEELAPLDPVDLKQVEWRMALPAVTPRQRIRKIESVGLPFSRIDDVNGQKVAVFEFDQLDLDSRAVFGWRVEMEVWGIKYRLKPSDCEHLPALPEGFADRYLVDNDNLSMETDIIIRAAAEAIGRETNLLRQMFNIRNYVYDRLSYGIKPHIDTPDLALRRGVGSCGEYVGVLLALARLNGIACRTAGRYKCPPHPLQRNLPMEPDFNHVWFEFYLPGIGWLPMESNPDDTNDGGPYPTRFFMGLAWYHAETAKDVPFEQLLSQGIPVNKQVVSIGELAINHVQFTILEELDPAAHLAHLEHHHHHH”: the “soluble on expression in E. coli” value was “soluble”.

For “MFLVDSHCHLDGLDYESLHKDVDDVLAKAAARDVKFCLAVATTLPGYLHMRDLVGERDNVVFSCGVHPLNQNDPYDVEDLRRLAAEEGVVALGETGLDYYYTPETKVRQQESFIHHIQIGRELNKPVIVHTRDARADTLAILREEKVTDCGGVLHCFTEDRETAGKLLDLGFYISFSGIVTFRNAEQLRDAARYVPLDRLLVETDSPYLAPVPHRGKENQPAMVRDVAEYMAVLKGVAVEELAQVTTDNFARLFHIDASRLQSIR”, the “soluble on expression in E. coli” value is reported as “soluble”.

In the case of “MAHHHHHHMPLIVPTPPAHPAQSPNQANGELLGRLMKLYRALCVRHDELGQEVILNDILAFLTRTHQHDMAESVIATCEISLPHRSNNQAARYFYYVGLTRALRLEYVDANQCLQQALRKAPERAFGFRVAATKLALVVQLLLGEIPPRSDFLQKDMRESLSPYLQLASCVRFGQLSRFMSILQQHKNIFEHDRTYSLILRVRQHVIKTGLRRICHAYSRISIPDICFKLSMENPADAEYIIAKAIRDGVIDAVIDHEKGHLISSDTVDVYSTSEPLLALQRRIQFLNVTHNDAKRSMRYTAADPELEEERRKVDREEMDSALRAALEDEELGGTDFEDGLP”, the “soluble on expression in E. coli” value is recorded as “not soluble”. As to “MFPSVDPEKCEDKGECVSTCPYEVFELGIRTAEEISELSFIGRIEARAHGNRMARTSHIDMCHVCGDCVIVCSEKAIRLLPR”, the “soluble on expression in E. coli” value is “not soluble”.
